The assay has as its target GS-nsp5 C145A (GS added nsp5 construct with the active site mutation C145A) (SARS-CoV-2). The assay can be described thus: NMR, 2D [15N,1H]-BEST-TROSY spectra compared.

As usually defined, the stoichiometry N is a count of units in the complex or per binding partner. In turn, “GS-nsp5 C145A (GS added nsp5 construct with the active site mutation C145A) (enzyme)” had a stoichiometry N of 2.

Values taken from publication PMC8141814 (Frontiers in Molecular Biosciences, 2021).
